# From the supplement of paper PMC10065799, “High-throughput profiling of sequence recognition by tyrosine kinases and SH2 domains using bacterial peptide display” (eLife, 2023)
# Legend:
# SHP2-C SH2 = test: SH2 binding enrichment of the phosphorylated peptide, bacterial display (enrichment ratio); higher = better substrate or ligand; peptides without Tyr show the background
# Grb2 SH2 = Grb2 SH2 (UniProt P62993); test: as above
# c-Src SH2 = test: as above
# Jak2 = Jak2 (UniProt O60674); test: phosphorylation enrichment, bacterial display (enrichment ratio); higher = better substrate or ligand; peptides without Tyr show the background
# Fyn = Fyn (UniProt P06241); test: as above
# Hck = Hck (UniProt P08631); test: as above
# AncSZ = test: as above
# EPHB2 = EPHB2 (UniProt P29323); test: as above
# Fes = Fes (UniProt P07332); test: as above
# FGFR1 = FGFR1 (UniProt P11362); test: as above
# c-Src = test: as above
# FGFR3 = FGFR3 (UniProt P22607); test: as above
# Fer (mouse) = test: as above
# EPHB1 = EPHB1 (UniProt P54762); test: as above
# MERTK = MERTK (UniProt Q12866); test: as above
# c-Abl (mouse) = test: as above
# 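Wherever SH2 binding enrichment of the phosphorylated peptide, bacterial display is given: peptide library displayed on the E. coli surface as eCPX fusions, selected cells deep-sequenced, score is each peptide's frequency after selection divided by its frequency in the input.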
# 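Wherever phosphorylation enrichment, bacterial display is given: 11-residue human phosphosite peptides and single-mutation variants displayed on the E. coli surface, counted by deep sequencing, each peptide's frequency after selection divided by its frequency in the unselected input library; frequency after pTyr selection over input frequency; kinase dosed for 20-30% of maximal phosphorylation in three min.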
# Chain of Jak2 (O60674 whole entry, looked up): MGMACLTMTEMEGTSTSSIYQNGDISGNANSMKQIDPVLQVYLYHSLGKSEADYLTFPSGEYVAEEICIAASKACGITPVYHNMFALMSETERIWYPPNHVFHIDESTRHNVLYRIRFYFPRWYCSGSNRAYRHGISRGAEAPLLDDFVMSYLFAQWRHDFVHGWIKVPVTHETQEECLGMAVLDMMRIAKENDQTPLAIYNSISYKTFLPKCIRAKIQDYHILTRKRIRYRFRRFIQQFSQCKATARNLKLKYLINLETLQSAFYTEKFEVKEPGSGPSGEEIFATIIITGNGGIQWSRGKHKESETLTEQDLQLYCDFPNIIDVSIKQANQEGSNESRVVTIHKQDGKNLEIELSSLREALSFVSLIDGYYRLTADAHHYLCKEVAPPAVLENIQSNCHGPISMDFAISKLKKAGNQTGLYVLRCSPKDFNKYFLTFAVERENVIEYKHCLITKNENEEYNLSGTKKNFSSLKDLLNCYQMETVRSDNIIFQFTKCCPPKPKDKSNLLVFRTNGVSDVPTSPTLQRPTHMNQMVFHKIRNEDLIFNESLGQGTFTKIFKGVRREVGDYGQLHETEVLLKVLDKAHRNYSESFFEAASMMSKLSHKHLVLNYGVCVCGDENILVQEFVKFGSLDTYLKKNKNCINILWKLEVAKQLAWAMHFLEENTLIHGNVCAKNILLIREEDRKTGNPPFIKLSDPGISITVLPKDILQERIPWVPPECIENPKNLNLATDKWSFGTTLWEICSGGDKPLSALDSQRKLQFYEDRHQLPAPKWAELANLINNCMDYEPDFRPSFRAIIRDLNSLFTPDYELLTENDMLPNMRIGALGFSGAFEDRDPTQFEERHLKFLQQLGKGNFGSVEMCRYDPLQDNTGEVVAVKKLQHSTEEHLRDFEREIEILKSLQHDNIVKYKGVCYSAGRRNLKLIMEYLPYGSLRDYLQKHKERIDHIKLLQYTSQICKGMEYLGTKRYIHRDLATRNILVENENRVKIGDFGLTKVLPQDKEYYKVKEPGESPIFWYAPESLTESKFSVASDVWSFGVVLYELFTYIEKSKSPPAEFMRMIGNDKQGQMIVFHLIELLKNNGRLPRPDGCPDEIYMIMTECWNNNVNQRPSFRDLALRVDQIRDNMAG
# Chain of FGFR3 (P22607 whole entry, looked up): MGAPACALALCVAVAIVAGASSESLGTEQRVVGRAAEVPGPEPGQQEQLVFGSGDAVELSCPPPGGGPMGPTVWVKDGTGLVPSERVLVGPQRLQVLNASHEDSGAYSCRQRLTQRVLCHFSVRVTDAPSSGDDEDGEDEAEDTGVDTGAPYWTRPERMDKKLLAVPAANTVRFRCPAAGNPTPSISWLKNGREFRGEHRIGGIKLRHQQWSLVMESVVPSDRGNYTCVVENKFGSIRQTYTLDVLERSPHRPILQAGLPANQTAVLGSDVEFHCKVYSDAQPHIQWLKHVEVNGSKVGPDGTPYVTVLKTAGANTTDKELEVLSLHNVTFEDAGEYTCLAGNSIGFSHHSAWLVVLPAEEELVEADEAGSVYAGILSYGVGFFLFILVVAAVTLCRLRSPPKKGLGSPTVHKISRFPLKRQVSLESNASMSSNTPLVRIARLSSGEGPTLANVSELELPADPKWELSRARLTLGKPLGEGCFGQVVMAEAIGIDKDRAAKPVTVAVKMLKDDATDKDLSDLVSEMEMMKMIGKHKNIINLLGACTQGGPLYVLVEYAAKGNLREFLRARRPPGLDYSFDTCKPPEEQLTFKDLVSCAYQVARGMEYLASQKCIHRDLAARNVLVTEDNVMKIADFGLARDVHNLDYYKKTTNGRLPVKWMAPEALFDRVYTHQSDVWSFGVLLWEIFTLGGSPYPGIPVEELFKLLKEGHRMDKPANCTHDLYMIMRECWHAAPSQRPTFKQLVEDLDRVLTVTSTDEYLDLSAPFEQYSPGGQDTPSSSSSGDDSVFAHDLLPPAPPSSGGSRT
# Chain of EPHB1 (P54762 whole entry, looked up): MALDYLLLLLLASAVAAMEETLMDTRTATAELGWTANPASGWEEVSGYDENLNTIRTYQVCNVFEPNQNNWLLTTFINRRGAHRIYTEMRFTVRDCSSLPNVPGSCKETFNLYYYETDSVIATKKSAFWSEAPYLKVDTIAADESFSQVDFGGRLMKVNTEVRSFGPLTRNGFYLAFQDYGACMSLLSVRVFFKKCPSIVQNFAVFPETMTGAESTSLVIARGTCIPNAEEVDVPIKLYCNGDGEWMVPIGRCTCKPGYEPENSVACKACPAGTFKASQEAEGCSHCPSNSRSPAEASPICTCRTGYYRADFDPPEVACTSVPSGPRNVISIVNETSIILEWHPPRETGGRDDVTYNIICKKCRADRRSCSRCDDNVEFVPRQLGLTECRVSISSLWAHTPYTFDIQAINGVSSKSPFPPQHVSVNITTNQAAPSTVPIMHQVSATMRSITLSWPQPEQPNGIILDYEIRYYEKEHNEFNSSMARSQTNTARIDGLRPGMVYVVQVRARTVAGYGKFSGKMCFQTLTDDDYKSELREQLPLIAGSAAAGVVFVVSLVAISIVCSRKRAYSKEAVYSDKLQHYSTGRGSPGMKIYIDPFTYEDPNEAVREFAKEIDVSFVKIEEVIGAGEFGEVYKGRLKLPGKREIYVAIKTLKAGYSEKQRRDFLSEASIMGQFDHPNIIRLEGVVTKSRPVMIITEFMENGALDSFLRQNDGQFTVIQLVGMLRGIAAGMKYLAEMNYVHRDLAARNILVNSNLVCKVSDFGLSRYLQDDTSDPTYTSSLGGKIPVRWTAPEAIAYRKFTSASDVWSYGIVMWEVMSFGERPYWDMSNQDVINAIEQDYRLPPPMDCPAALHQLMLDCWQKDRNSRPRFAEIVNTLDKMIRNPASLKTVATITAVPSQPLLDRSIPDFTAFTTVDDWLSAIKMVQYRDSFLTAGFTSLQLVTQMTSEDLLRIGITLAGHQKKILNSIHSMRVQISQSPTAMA
# Chain of Hck (P08631 whole entry, looked up): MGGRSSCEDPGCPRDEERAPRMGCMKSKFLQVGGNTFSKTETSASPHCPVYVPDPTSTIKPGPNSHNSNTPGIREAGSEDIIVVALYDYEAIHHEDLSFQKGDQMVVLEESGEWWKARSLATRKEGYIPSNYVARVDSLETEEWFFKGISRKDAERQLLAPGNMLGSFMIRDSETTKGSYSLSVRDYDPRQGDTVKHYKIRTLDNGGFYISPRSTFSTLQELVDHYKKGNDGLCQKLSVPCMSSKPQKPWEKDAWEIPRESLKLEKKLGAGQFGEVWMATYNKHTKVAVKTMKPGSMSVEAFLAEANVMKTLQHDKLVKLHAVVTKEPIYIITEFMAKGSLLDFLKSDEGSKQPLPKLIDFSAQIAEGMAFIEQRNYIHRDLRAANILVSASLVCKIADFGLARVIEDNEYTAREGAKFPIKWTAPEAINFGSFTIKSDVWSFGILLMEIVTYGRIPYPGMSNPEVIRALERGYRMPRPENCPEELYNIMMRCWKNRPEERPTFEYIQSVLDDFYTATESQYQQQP
# Chain of Grb2 SH2 (P62993 whole entry, looked up): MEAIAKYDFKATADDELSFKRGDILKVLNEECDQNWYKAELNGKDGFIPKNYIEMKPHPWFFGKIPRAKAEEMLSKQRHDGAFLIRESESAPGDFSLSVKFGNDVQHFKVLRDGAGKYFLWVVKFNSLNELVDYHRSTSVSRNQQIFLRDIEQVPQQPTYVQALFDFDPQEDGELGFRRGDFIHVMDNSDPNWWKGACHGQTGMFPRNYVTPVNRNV
# Chain of EPHB2 (P29323 whole entry, looked up): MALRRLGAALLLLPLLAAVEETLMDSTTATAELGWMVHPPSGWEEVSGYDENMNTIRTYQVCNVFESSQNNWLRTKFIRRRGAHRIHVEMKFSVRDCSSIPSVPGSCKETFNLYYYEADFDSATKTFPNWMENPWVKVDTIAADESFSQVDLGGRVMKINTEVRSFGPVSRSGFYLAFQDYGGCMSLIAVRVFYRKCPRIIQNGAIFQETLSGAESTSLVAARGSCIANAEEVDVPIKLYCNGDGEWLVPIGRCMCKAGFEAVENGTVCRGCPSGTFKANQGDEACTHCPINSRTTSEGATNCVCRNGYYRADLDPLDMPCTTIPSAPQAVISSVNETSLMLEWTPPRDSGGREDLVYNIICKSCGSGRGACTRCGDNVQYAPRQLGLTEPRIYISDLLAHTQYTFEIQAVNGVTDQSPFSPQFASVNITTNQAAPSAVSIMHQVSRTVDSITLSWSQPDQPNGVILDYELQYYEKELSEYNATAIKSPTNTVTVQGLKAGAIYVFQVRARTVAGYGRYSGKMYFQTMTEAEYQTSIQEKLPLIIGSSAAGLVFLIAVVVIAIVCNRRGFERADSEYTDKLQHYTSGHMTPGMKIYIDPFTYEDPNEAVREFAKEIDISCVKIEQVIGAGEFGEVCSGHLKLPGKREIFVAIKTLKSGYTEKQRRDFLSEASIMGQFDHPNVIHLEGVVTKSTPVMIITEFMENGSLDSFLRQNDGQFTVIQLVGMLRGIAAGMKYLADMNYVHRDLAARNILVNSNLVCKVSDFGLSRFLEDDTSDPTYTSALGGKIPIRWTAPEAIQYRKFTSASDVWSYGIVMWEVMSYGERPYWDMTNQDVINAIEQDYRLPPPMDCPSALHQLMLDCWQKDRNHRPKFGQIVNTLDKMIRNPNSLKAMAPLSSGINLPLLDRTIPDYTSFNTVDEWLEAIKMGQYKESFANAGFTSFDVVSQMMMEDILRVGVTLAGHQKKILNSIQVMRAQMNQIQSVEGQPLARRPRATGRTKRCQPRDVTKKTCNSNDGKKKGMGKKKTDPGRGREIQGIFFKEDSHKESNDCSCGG
Sequence,SH2 binding enrichment (SHP2-C SH2),SH2 binding enrichment (Grb2 SH2),SH2 binding enrichment (c-Src SH2),phosphorylation enrichment (Jak2),phosphorylation enrichment (Fyn),phosphorylation enrichment (Hck),phosphorylation enrichment (AncSZ),phosphorylation enrichment (EPHB2),phosphorylation enrichment (Fes),phosphorylation enrichment (FGFR1),phosphorylation enrichment (c-Src),phosphorylation enrichment (FGFR3),phosphorylation enrichment (Fer (mouse)),phosphorylation enrichment (EPHB1),phosphorylation enrichment (MERTK),phosphorylation enrichment (c-Abl (mouse))
LKSEMYQKLLK [RGS13_Y146],0.523,0.832,0.544,0.92,0.56,0.78,1.34,0.925,1.18,0.749,0.425,0.845,0.456,0.709,0.348,0.733
HSKGIYFVQLE [MGAT4B_Y262_Q257H_YF],1.45,1.53,1.08,2.27,1.03,1.12,1.87,0.911,2.53,1.38,1.65,1.75,0.711,0.853,3.31,1.31
PDMHSYVVRFN [GRIN2D_Y732_M733V_YF],1,1.29,1.25,1.81,0.467,0.431,0.882,0.464,1.04,0.78,0.553,0.797,0.411,0.658,0.531,0.873
ILTYKYLQIPM [KIT_Y547_K550I],3.97,0.893,0.929,0.817,0.422,0.483,1.11,0.631,0.997,0.785,0.396,0.807,0.389,0.7,0.406,0.706
WDLSEYSFKDP [ITGA3_Y237_YF],1.29,0.916,0.661,1.21,2.17,0.985,2.14,0.618,1.23,0.625,2.11,0.885,0.556,0.682,0.445,0.853
VQQVIYATRAL [MYH7_Y422_G425R],1.06,0.652,0.518,0.598,9.04,8.57,0.663,0.505,0.684,0.468,7.24,0.534,0.57,0.434,0.711,14.1
EVEFQYPFRLH [SYP_Y73_E72Q],0.462,0.913,0.489,1.1,0.445,0.473,1.03,0.498,1.23,0.475,0.506,0.709,0.524,0.64,0.443,0.885
IKAGAYDFPSL [CAMK2A_Y230_P235L],0.626,0.774,4.76,0.603,0.877,0.382,0.761,0.493,0.647,0.41,0.388,0.484,1.03,0.418,5.66,0.541
WNDLDYVDSRR [GAA_Y407_M408V],0.796,0.903,0.643,0.89,0.373,0.521,1.44,0.869,0.94,0.567,0.478,0.67,0.45,0.515,0.357,0.53
TLQNMYGCDVG [HLA-B_Y123_S121N],0.765,1.01,0.643,0.989,0.586,0.625,0.886,0.581,1.2,0.545,0.601,0.669,0.64,0.702,0.446,0.756
NAMRRHIEEFQ [MNS1_Y244_Y244H],0.636,0.676,0.435,0.672,0.367,0.366,0.634,0.411,0.741,0.348,0.347,0.497,0.346,0.398,0.469,0.628
EDEGLYMVRVP [MYOM3_Y343],0.628,0.776,0.472,1.24,3.03,4.63,1.58,1.71,1.43,0.56,3.41,0.736,1.89,1.74,1.79,0.812
TLNVRYESVQA [CEACAM7_Y236],1.52,0.9,7.18,0.755,0.434,0.487,0.757,0.415,0.745,0.451,0.415,0.617,0.59,0.44,0.371,0.504
RTCSSYAIEKI [PARP15_Y520],0.855,0.938,0.563,0.894,0.302,0.581,1.13,0.702,0.986,0.589,0.383,0.629,0.371,0.532,0.344,0.667
KLKNAYEESLE [MYH7_Y1488],0.761,0.531,0.654,0.908,0.429,0.384,0.982,0.445,1.14,0.65,0.472,0.612,0.454,0.491,0.452,0.743
DRLASYLDKVR [KRT10_Y160],0.626,0.848,0.507,0.533,0.378,0.454,0.619,0.429,0.643,0.435,0.345,0.471,0.336,0.4,0.379,0.519
EEKSCYILHSS [PATJ_Y783_E780K],0.893,0.805,0.628,0.744,0.753,0.651,1.08,0.647,1.22,0.755,0.514,0.704,0.622,0.669,0.449,0.779
